Results on one substance are retold here after patent US20250242012A1.

The target in the assay is soluble HRP-conjugated spike-RBD construct (HRP-RBD) of the SARS-CoV-2 neutralizing antibody ELISA a (SARS-CoV-2) (UniProt P0DTC2).

On to “positive control reagent of the SARS-CoV-2 neutralizing antibody ELISA assay kit (Creative Diagnostics)”, for which the percent inhibition is 82.5%.
